Measurements as given in patent publication US20110195090A1.

molecular target: Bal gp120 (HIV-1 isolate Bal); experiment: ELISA, bal gp120 coated, scFv

Substance | EC50
scFv b12 germline mutant G53Y | > 1000 nM
mature scFv b12 | 1.3 nM
scFv b12 germline mutant A52P/G53Y | 87.3 nM

molecular target: Bal gp120 (HIV-1 isolate Bal); experiment: ELISA, bal gp120 coated, scFv-Fc

Substance | EC50
b12 A52P/G53Y scFv-Fc (Fc fusion) | 29.3 nM
b12 G53Y scFv-Fc (Fc fusion) | > 1000 nM
mature b12 scFv-Fc (Fc fusion) | 0.4 nM
